Biological target: T1, CHO cells transfected with human CD38 (CHO-CD38 cells) (Homo sapiens, UniProt P28907)
T1 construct: expressed in transfected cells; host or cells: CHO cells
Assay: Enzymatic activity of cellular expressed CD38 (cGDPR production)
Assay type: cell-based
Conditions: after 156 minutes; for cGDPribose production: CHO-CD38 cells
Description: The enzymatic activity of cellular expressed human CD38 was measured in an assay essentially as described in Graeff et al., J. Biol. Chem. 269, 30260-30267 (1994). Briefly, substrate NGD (80 μM) was incubated with […] CHO cells transfected with human CD38 (CHO-CD38 cells) in a buffer containing 20 mM Tris-HCl, pH 7.0 supplemented with 30 μg/ml IgG1. The production of cGDPR can be monitored spectrophotometrically at the emission wavelength of 410 nm (excitation at 300 nm). In this example an excitation filter of 340±60 nm and an emission filter of 430±8 nm was used. To test the effect of -005 and -003 on the enzymatic activity of cellular expressed CD38, CHO-CD38 cells were pre-incubated for 15′ at room temp. with various concentrations (30, 3, 0.3 and 0.03 μg/ml) of the different antibodies before adding the substrate NGD. The production of cGDPR was recorded at different time points after addition of substrate NGD (3, 6, 9, 12, 30, 45, 60, 112 and 156 min).

In the case of “-005: human monoclonal IgG1 anti-CD38 antibody, VL region SEQ ID No:12 and VH region SEQ ID No:17”, the cGDPribose production (0.03 μg/ml antibody) is reported as 104 % of NGD control, the cGDPribose production (0.3 μg/ml antibody) is reported as 100 % of NGD control and the cGDPribose production (3 μg/ml antibody) is reported as 82 % of NGD control. The “reduced production of cGDPR” value (3 μg/ml) was 18%, the cGDPribose production (30 μg/ml antibody) was 79 % of NGD control and the “reduced production of cGDPR” value (30 μg/ml) was 21%.

Source: patent US20240165226A1, “COMBINATION TREATMENT OF CD38-EXPRESSING TUMORS” (GENMAB A/S, priority 2006, published 2024)
